Columns and labels:
[1] = biological target: T1, trpE-RB19-27 fusion (Homo sapiens) (UniProt P06400); conditions: Southwestern blot; 20-fold higher affinity than either subregion; 50 mM NaCl, pH 7.0, room temperature
T1 sequence: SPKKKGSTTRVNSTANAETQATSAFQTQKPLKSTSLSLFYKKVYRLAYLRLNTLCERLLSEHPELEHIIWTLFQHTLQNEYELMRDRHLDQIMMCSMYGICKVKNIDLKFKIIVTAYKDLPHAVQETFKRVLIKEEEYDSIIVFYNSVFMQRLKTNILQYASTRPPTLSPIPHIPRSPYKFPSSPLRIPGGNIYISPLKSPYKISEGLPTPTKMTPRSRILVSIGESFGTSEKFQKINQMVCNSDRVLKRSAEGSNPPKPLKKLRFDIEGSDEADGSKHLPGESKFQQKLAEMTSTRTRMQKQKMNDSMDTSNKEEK

[2] = biological target: T2, trpE-RB23-27 fusion (Homo sapiens) (UniProt P06400); conditions: Southwestern blot; stated as RB19-27 having 20-fold higher affinity; 50 mM NaCl, pH 7.0, room temperature
T2 sequence: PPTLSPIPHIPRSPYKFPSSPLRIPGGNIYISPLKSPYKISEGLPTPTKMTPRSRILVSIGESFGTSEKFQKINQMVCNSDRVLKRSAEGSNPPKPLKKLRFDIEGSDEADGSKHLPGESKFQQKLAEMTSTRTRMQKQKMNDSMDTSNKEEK

[3] = biological target: T3, trpE-RB19-22 fusion (Homo sapiens) (UniProt P06400); conditions: Southwestern blot; stated as RB19-27 having 20-fold higher affinity; 50 mM NaCl, pH 7.0, room temperature
T3 sequence: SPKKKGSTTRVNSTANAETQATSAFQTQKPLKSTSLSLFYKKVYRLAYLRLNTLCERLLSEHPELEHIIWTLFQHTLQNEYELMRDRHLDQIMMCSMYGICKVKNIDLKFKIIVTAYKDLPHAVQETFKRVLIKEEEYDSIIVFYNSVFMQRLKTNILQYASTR

“pGEM1 plasmid DNA linearized by EcoRI, random-primed probe” gave a binding signal (fold vs RB19-22 or RB23-27) [1] of 20, a binding signal (fraction of RB19-27) [2] of 0.05 and a binding signal (fraction of RB19-27) [3] of 0.05.

Source: patent US6051396
